This is an account of results in US20250082755A1.

This experiment deals with CD123 expressed on MOLM13 AML cells (UniProt P26951). Nature of the experiment: cell-based or functional assay.
Chain of UniProt P26951 (P26951 19-378 limits assumed): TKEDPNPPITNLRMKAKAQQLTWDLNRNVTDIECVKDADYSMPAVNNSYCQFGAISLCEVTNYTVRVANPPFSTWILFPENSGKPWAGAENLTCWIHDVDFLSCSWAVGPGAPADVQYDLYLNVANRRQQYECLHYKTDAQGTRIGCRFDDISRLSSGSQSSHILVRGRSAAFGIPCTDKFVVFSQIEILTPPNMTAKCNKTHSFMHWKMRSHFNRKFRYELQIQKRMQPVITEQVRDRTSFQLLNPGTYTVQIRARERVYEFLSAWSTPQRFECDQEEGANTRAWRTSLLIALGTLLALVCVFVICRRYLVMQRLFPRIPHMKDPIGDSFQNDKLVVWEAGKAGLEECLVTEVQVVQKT

Take IL3-K110E-41BBcostim (receptor): the TIB153 % CD69 activation: MOLM-13-WT/MOLM-13 CD123KO is 1.28.
On the same count and under the same terms, in the case of “IL3-K110E-CD28costim (SEQ ID NO: 29) (receptor)” it was 1.03; in that of “IL3-K110E-nocostim (SEQ ID NO: 27) (receptor)”, 1.06.
In turn, “IL3-WT-41BBcostim (SEQ ID NO: 25) (receptor)” registered a CD69 activation, Average MOLM13-WT fold change over MOLM-CD123KO of 3.84 fold; a CD69 activation, MOLM13 fold change over MOLM-CD123KO, Replicate 1 of 4.74 fold; a CD69 activation, MOLM13 fold change over MOLM-CD123KO, Replicate 2 of 2.94 fold; a TIB153 % CD69 activation: MOLM-13-WT/MOLM-13 CD123KO of 4.74.
